Patent US12275803B2, “Functionalization of biopolymers with growth factor-binding peptides” (Universiteit Twente, priority 2016, dated 2025)

Experiments:
[1] = test system: TGFB1 reporter cell line (Mink Lung Epithelium Cells, PAI-1 promoter luciferase); test: Luciferase assay in TGFB1 reporter cell line; assay type: cell-based; parameters: dose or concentration left out as unconfirmed; settings: cells on films with immobilized hTGFB1
Protocol: MLECs were seeded at 64000 cells/cm^2 and allowed to attach overnight at 37° C. in a 5% CO2 incubator. The medium was then replaced by DMEM without FBS and cells incubated for an additional period of 24 hours. Cells were lysed and the luciferase quantified according to the manufacturer's protocol (Promega, E4530). Luciferase values were normalized for DNA content quantified by CyQuant Cell proliferation assay (Invitrogen).

[2] = test system: BMP-2 reporter cell line (C2C12 Luc, ID1 promoter luciferase); test: Luciferase assay in BMP-2 reporter cell line; assay type: cell-based; settings: 2 ng/mL inhibitor; response to immobilized hBMP-2
Protocol: For cell experiments, the sterile films were washed three times with PBS and incubated with concentrated hBMP-2 in PBS for one hour with gentle agitation. Subsequently, the films were extensively washed with TBST (0.5%) and PBS to remove any traces of the washing buffer prior to cell seeding.
C2C12 Luc express luciferase under the control of a ID1 promoter—a BMP-2 target gene (Zilberberg et al., 2007, BMC Cell Biol. 8(41). DOI: 10.1186/1471-2121-8-41).
C2C12 Luc were seeded on films at 16,000 cells/cm2 in DMEM medium supplemented with 10% FBS and allowed to attach overnight at 37° C. in a 5% CO2 incubator. The cells were lysed the following day and the luciferase quantified according to the manufacturer's protocol (Promega, E4530). Luciferase values were normalized for DNA content quantified by CyQUANT cell proliferation assay (Invitrogen).

HUVECs = test: Cell survival of HUVECs after starvation; assay type: cell-based, human; settings: 20 ng/mL hVEGF in medium during 24 hours starvation; versus native films without hVEGF
Protocol: Samples were incubated with 1 μg/mL of VEGF (PeproTech) in 0.5% (v/v) PBS TWEEN®20 (PBST) for one hour with gentle agitation. The films were then washed three times for 10 minutes with 0.5% (v/v) PBST and then with PBS for a further 10 minutes. Next, the films were blocked for one hour with PBS containing 1% (w/v) bovine serum albumin (BSA) and subsequently washed as described above. Afterwards, the films were incubated with a primary antibody (2 μg/mL; rabbit polyclonal anti-human VEGF, PeproTech) in the blocking solution during one hour with agitation. The films were washed as mentioned above and then incubated with a secondary antibody (8 μg/mL; goat anti-rabbit ALEXA FLUOR® 594, Invitrogen) in PBS containing 1% w/v BSA for one hour with gentle agitation. Before image acquisition, the films were washed three times for 10 minutes with […], rinsed three times with PBS and dried under a N2 stream. Fluorescence intensity was quantified using ImageJ. […]
HUVECs at passage 4 were used for experiments. […] Once detached, fresh medium was added to neutralize the trypsin and the cells were counted. […] After 24 hours, the cells were lysed and the DNA content was quantified by CyQUANT cell proliferation assay (Invitrogen), following the manufacturer's instructions.

## Cc1cccc(-c2[nH]c(C(C)(C)C)nc2-c2ccc3c(c2)OCO3)n1.Cl [SB-431452, 2-(5-benzo[1,3]dioxol-5-yl-2-tert-butyl-3H-imidazol-4-yl)-6-methylpyridine hydrochloride]
[1]
  luciferase activity in presence of TGF-β1 inhibitor: completely suppressed

B1: Noggin: specific BMP-2 inhibitor (protein, UniProt Q13253 28-232, looked up)
Noggin: QHYLHIRPAPSDNLPLVDLIEHPDPIFDPKEKDLNETLLRSLLGGHYDPGFMATSPPEDRPGGGGGAAGGAEDLAELDQLLRQRPSGAMPSEIKGLEFSEGLAQGKKQRLSKKLRRKLQMWLWSQTFCPVLYAWNDLGSRFWPRYVKVGSCFSKRSCSVPEGMVCKPSKSVHLTVLRWRCQRRGGQRCGWIPIQYPIISECKCSC
[2]
  luciferase activity in presence of BMP-2 inhibitor: completely suppressed

B2: soluble VEGF: soluble hVEGF added to the medium during starvation (protein)
chain: APMAEGGGQNHHEVVKFMDVYQRSYCHPIETLVDIFQEYPDEIEYIFKPSCVPLMRCGGCCNDEGLECVPTEESNITMQIMRIKPHQGQHIGEMSFLQHNKCECRPKKDRARQENPCGPCSERRKHLFVQDPQTCKCSCKNTDSRCKARQLELNERTCRCDKPRR
HUVECs
  survival of HUVECs (total amount of DNA) with soluble VEGF: significant increase in the amount of DNA
